In article PMC6050341, “Direct observation of DNA target searching and cleavage by CRISPR-Cas12a”:
Changes are numbered by the printed parent chain.

Legend:
[1] = target: T1, AsCas12a WT (Acidaminococcus sp., UniProt U2UMQ6 1-1307); test: single-molecule FRET; 10 mM Mg2+; 20 nM RNP; transient S1 lifetime 0.13 +/- 0.01 s; stable stage II lifetime 94 s; smFRET: 10 mM Tris-HCl pH 8.0, 100 mM NaCl (100 mM KCl in Figs 4, 5), 10 mM MgCl2, 1 mM DTT, oxygen scavenger, 37 C; SpCas9 in NEB buffer 3
[2] = target: T2, dAsCas12a (catalytically dead) (Acidaminococcus sp., UniProt U2UMQ6 1-1307, E993A); test: single-molecule FRET; 10 mM Mg2+; stable binding reached; smFRET: 10 mM Tris-HCl pH 8.0, 100 mM NaCl (100 mM KCl in Figs 4, 5), 10 mM MgCl2, 1 mM DTT, oxygen scavenger, 37 C; SpCas9 in NEB buffer 3; conditions: protein: recombinant; tags: His tag implied (pET28b, Ni-NTA); label: crRNA 3' Cy5; DNA Cy3, 5' biotin; DNA 5' overhang 2 nt
[3] = target: T2, dAsCas12a (catalytically dead); test: single-molecule FRET; 10 mM Mg2+; 100 mM KCl; no specific binding events (t < 30 ms); smFRET: 10 mM Tris-HCl pH 8.0, 100 mM NaCl (100 mM KCl in Figs 4, 5), 10 mM MgCl2, 1 mM DTT, oxygen scavenger, 37 C; SpCas9 in NEB buffer 3; conditions: protein: recombinant; tags: His tag implied (pET28b, Ni-NTA); label: crRNA 3' Cy5; DNA Cy3, 5' biotin; DNA 5' overhang 2 nt
[4] = target: T1, AsCas12a WT; test: single-molecule FRET; 5 nM AsCas12a, 10 nM crRNA; no stable binding, only short events; smFRET: 10 mM Tris-HCl pH 8.0, 100 mM NaCl (100 mM KCl in Figs 4, 5), 10 mM MgCl2, 1 mM DTT, oxygen scavenger, 37 C; SpCas9 in NEB buffer 3
[5] = target: T1, AsCas12a WT; test: single-particle tracking (TIRF); loose binding; drift rate rises with flow; smFRET: 10 mM Tris-HCl pH 8.0, 100 mM NaCl (100 mM KCl in Figs 4, 5), 10 mM MgCl2, 1 mM DTT, oxygen scavenger, 37 C; SpCas9 in NEB buffer 3
[6] = target: T1, AsCas12a WT; test: single-molecule FRET; 10 mM Mg2+; 10 nM protein, 20 nM crRNA; smFRET: 10 mM Tris-HCl pH 8.0, 100 mM NaCl (100 mM KCl in Figs 4, 5), 10 mM MgCl2, 1 mM DTT, oxygen scavenger, 37 C; SpCas9 in NEB buffer 3
[7] = target: T1, AsCas12a WT; test: single-particle tracking (TIRF); 1D diffusion, then stable stall at target about 50 s; smFRET: 10 mM Tris-HCl pH 8.0, 100 mM NaCl (100 mM KCl in Figs 4, 5), 10 mM MgCl2, 1 mM DTT, oxygen scavenger, 37 C; SpCas9 in NEB buffer 3

B1: DNMT1 crRNA + target DNA WT (Fig 2) (mixed)
RNA: AAUUUCUACUCUUGUAGAUCUGAUGGUCCAUGUCUGUUACUC
DNA 1: TTTTTTCACTTGACAGGCGAGTAACAGACATGGACCATCAGGAAACATTAACGTACT
DNA 2: AGTACGTTAATGTTTCCTGATGGTCCATGTCTGTTACTCGCCTGTCAAGTG
modifications: internal amino-dT for dye
- binding result [1]: binds

B2: DNMT1 crRNA + 17 match DNA (mixed)
RNA: B1 RNA
DNA 1: TTCACTTGACAGGCACTCGTCAGACATGGACCATCAGGAAACATTAACGTACT
DNA 2: B1 DNA 2 with T34A, T35C, A36G, C37A, T38G, C39T
- binding result [2]: binds

B3: DNMT1 crRNA + 0 match DNA (mixed)
RNA: B1 RNA
DNA 1: TTCACTTGACAGGCACTCGTCTCAACGCACACTGATAGAAACATACACGTACT
DNA 2: AGTACGTGTATGTTTCTATCAGTGTGCGTTGAGACGAGTGCCTGTCAAGTG
- binding result [3]: no binding

B4: DNMT1 crRNA + target w/o PAM (mixed)
RNA: B1 RNA
DNA 1: TTCACTTGACAGGCGAGTAACAGACATGGACCATCAGGAAGCATAAGCGTACT
DNA 2: B1 DNA 2 with T7C, A9T, T13C
- binding result [4]: no binding

Binder: AAUUUCUACUCUUGUAGAUCUGAUGGUCCAUGUCUGUUACUC (mixed) [DNMT1 crRNA + lambda DNA]
- binding result [5]: binds

B5: DNMT1 crRNA + target WT (Fig 5) (mixed)
RNA: B1 RNA
DNA 1: GGATCTCTTAAGTCGTTGAGTAACAGACATGGACCATCAGGAAACACAGTGCAGTATTAGCACTTTTT
DNA 2: GTGCTAATACTGCACTGTGTTTCCTGATGGTCCATGTCTGTTACTCAACGACTTAAGAGATCC
- binding result [6]: binds

Binder: AAUUUCUACUCUUGUAGAUACGGUCGAGCGUCAGCGUCCGGG (mixed) [80% crRNA + 21 kb DNA]
- binding result [7]: binds
